Numbering of substitutions follows the chain as printed. In names and notes the source's numbering stands.
B1: rFluA-20 heavy chain mutant Y34A (antibody, V domains shown)
VH: QVQLQESGPGLVKPSETLSLTCSVSGVSVTSDIAYWTWIRQPPGKGLEWIGYIFYNGDTNYNPSLKSRVTMSIDTSKNEFSLRLTSVTAADTAVYFCARGTEDLGYCSSGSCPNHWGQGTLVTVSS
VL: DIQMTQSPSSLSASIGDRVTITCRPSQNIRSFLNWFQHKPGKAPKLLIYAASNLQSGVPSRFSGSGSGTEFTLTIRSLQPEDFATYYCQQSYNTPPTFGQGTKVEIK
B2: rFluA-20 heavy chain mutant E97A (antibody, V domains shown)
VH: B1 VH with A34Y, E102A
VL: B1 VL
B3: rFluA-20 heavy chain mutant T96A (antibody, V domains shown)
VH: B1 VH with A34Y, T101A
VL: B1 VL

Assays:
[1] = target: HA of A/Solomon Islands/03/2006 (H1N1) (influenza A virus (H1N1))
[2] = target: HA of A/Texas/36/1991 (H1N1) (influenza A virus (H1N1))
[3] = target: HA of A/Texas/50/2012 (H3N2) (influenza A virus (H3N2))

| Binder | EC50 [1] [µg/mL] | EC50 [2] [µg/mL] | EC50 [3] [µg/mL] |
| --- | --- | --- | --- |
| B1 | 0.04 | 0.05 | 0.16 |
| B2 | 0.07 | 0.05 | 0.18 |
| B3 | 0.03 | 0.04 | 0.07 |
